The values that follow come from paper PMC11353897, “Biochemical and structural elucidation of the L-carnitine degradation pathway of the human pathogen Acinetobacter baumannii” (Frontiers in Microbiology, 2024).

Data set [1] deals with T1, malic semialdehyde dehydrogenase (MSA-DH) (Acinetobacter baumannii, UniProt D0C9N7).
T1 construct: gene HMPREF0010_01350; N-terminal His-thioredoxin fusion, tetramer
T1 sequence (D0C9N7 1-483): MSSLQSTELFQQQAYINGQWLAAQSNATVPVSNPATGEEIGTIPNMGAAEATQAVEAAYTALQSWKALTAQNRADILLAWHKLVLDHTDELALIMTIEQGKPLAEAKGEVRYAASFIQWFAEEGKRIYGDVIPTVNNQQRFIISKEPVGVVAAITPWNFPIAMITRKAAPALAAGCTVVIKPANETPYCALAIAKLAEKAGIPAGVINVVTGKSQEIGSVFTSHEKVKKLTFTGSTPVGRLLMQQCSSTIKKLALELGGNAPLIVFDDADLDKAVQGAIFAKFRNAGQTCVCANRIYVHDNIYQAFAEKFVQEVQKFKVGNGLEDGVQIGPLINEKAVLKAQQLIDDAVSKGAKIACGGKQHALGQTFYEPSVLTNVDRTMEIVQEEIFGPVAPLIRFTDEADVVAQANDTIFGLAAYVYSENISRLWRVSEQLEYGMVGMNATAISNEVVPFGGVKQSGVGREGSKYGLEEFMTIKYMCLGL
The data set can be described thus: MSA depletion (MBTH) and NADH formation assays with […] NAD+. The data set is classed as biochemical.

For data set [2], the target named is T2, carnitine monooxygenase oxygenase component CntA (Acinetobacter baumannii, UniProt D0C9N6).
T2 construct: CntA after on-column cleavage of GST tag; with CntB (reductase)
The data set can be described thus: MBTH aldehyde formation assay and L-carnitine depletion assay (specific activity). The data set is classed as biochemical.

Data set [3] concerns the target D-malate dehydrogenase (MDH) from A. baumannii, N-terminal His-tag fusion (Acinetobacter baumannii ATCC 19606). The experiment in a line: mass photometry; Refeyn TwoMP, 25 nM protein in PBS, 60 s movies, calibrated against NativeMark standard.
In data set [4] the target is malic semialdehyde dehydrogenase (MSA-DH) from A. baumannii, N-terminal His-thioredoxin fusion (Acinetobacter baumannii ATCC 19606). The description is as above.
Data set [5] has the same target. The data set can be described thus: crystal structure; X-ray, 2.6 A, space group P212121, 12 chains (three tetramers) in the asymmetric unit; protein at 40 mg/mL supplemented with 7 mM D-malate.
Data set [6] has the same target. The experiment in a line: SEC; analytical size exclusion chromatography, Superdex 200 increase 5/150 GL, 20 mM HEPES-NaOH pH 7.5, 150 mM NaCl, 0.45 mL/min, 50 uL of 3 mg/mL protein injected, calibrated with protein standards. On the technique in general: SEC sorts molecules by how far they enter the pores of the column.
Data set [7] deals with T3, D-malate dehydrogenase (MDH) (Acinetobacter baumannii, UniProt A0ABX6CCN1).
T3 construct: gene dmlA; N-terminal His-tag fusion, tetramer
T3 sequence (A0ABX6CCN1 1-370): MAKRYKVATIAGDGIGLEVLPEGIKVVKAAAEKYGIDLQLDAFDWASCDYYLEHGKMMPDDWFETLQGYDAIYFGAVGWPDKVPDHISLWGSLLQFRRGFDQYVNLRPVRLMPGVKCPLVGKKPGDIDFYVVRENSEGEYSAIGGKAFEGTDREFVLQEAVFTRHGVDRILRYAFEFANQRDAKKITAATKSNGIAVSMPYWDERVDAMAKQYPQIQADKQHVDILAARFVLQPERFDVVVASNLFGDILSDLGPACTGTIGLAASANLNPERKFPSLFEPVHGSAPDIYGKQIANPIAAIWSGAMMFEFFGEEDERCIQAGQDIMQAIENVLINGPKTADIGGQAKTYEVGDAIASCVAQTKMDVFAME
The experiment in a line: spectroscopic NADH formation assay ([…] nm) with D-malate, varied inhibitor concentrations. The format is biochemical.

Data set [8] addresses T2, carnitine monooxygenase oxygenase component CntA. The experiment in a line: MBTH aldehyde formation assay (specific activity). The format is biochemical.
Substrate in data set [9]: O=C[C@H](O)CC(=O)O
The experiment in a line: purified protein. The format is biochemical, Acinetobacter baumannii. As to conditions: NAD+ or NADP+ proposed from model: Arg166, Arg284, Ser447 bind the carboxylate; catalytic Cys290 (covalent hemithioacetal intermediate) and Glu256.

Substrate in data set [10]: O=C(O)C[C@@H](O)C(=O)O
The experiment in a line: purified protein. The format is biochemical, Acinetobacter baumannii. As to conditions: NAD+; Mg2+ or Mn2+.

On to `NC(=O)c1ccc[n+]([C@@H]2O[C@H](COP(=O)([O-])OP(=O)(O)OC[C@H]3O[C@@H](n4cnc5c(N)ncnc54)[C@H](O)[C@@H]3O)[C@@H](O)[C@H]2O)c1` [NAD^+], for which, in [1], the “MSA depletion (MBTH) and NADH formation assays with 2 mM NAD+” value is recorded as “MSA-DH can use NAD^+ or NADP^+ as a cofactor for the oxidation of the MSA substrate”.

`C[N+](C)(C)C[C@H](O)CC(=O)[O-]` [L-carnitine]: the “MBTH aldehyde formation assay and L-carnitine depletion assay (specific activity)” value in [2] came to 2.8 ± 0.2 µmol/min/mg.

One may read the stoichiometry N as a count of units in the complex or per binding partner. In the case of “D-malate dehydrogenase (MDH) from A. baumannii, N-terminal His-tag fusion (enzyme)”, in data set [3], the stoichiometry N was 4.

Consider “malic semialdehyde dehydrogenase (MSA-DH) from A. baumannii, N-terminal His-thioredoxin fusion (enzyme)”, for which the stoichiometry N in [4], in [5] and in [6] was 4 each time.

Broadly, the Ki is the dissociation constant of the complex between target and ligand, obtained from inhibition or displacement. A lower Ki goes with tighter binding. With `O=C(O)C(O)C(O)C(=O)O` (stereo not drawn) [meso-tartrate], the Ki in data set [7] came out at 320 ± 80 µM.

For `C[N+](C)(C)CCCC(=O)[O-]` [γ-butyrobetaine], in [8], the “MBTH aldehyde formation assay (specific activity)” value came to 2.1 ± 0.2 µmol/min/mg.

B1: malic semialdehyde dehydrogenase (MSA-DH) (Acinetobacter baumannii ATCC 19606 = CIP 70.34 = JCM 6841) (protein)
chain: T1 sequence (D0C9N7 1-483)
notes: N-terminal His-thioredoxin fusion, tetramer
Usually Km stands for the concentration of substrate that gives half-maximal velocity. As for B1, the Km in the data set “purified protein [9]” was determined as 2600 ± 140 µM.

B2: D-malate dehydrogenase (MDH) (Acinetobacter baumannii ATCC 19606 = CIP 70.34 = JCM 6841) (protein)
chain: T3 sequence (A0ABX6CCN1 1-370)
notes: N-terminal His-tag fusion, tetramer
As to B2, in the data set “purified protein [10]”, the Km worked out at 2100 ± 200 µM.
